Data on ten molecules can be found in US20040072301A1 (VAN ANDEL RESEARCH INSTITUTE, published 2004).

Substitutions are numbered along the chain they refer to. Names may count otherwise.

For assay [1], the target named is T1, Arp2/3 complex from NIH 3T3 cell lysates (UniProt P61161 1-394; Q99JY9 2-418; Q9WV32 1-372; Q9CVB6 1-300; Q9JM76 2-178; P59999 …). As to the kind of experiment: GST pull-down from NIH 3T3 cell extracts, immunoblot. The method, then: (§1) Recombinant protein purification, in vitro GST-‘pull downs’ and two-hybrid assays. Two-hybrid assays and in vitro translation/GST-pull downs were conducted as previously described (Tominaga et al., supra; Sahai, E. et al., Embo J 17, 1350-61 (1998)). […] Beads were rinsed three times with PBS 1×supplemented with 0.1 μg/μl of BSA and were analyzed by SDS-PAGE and immunoblotted with purified antibodies recognising either Arp3, p34, or actin. For pull-downs from cell extracts, NIH 3T3 cells were lysed and extracted as per (Machesky, L. M. et al., Curr Biol 8, 1347-56 (1998)), and incubated with purified GST-fusion proteins bound to glutathione beads before extensive washing, separation by SDS-PAGE, transfer, and immunoblotting.
After incubation, the complexes were washed extensively and the resulting protein complexes were separated by SDS-PAGE, transferred to membranes, and analyzed by Western blots using antibodies directed to actin, Arp3 and p34 Arc (Welch, M. D. et al., Nature 385, 265-9 (1997)).
(In general: A western blot detects proteins with antibodies after separation by electrophoresis.)

Assay [2] has as its target T2, mDia2 DAD (amino acids 1031-1171), yeast two-hybrid Gal4 fusion (mouse, UniProt Q9Z207 1031-1171).
T2 construct: Two-hybrid construct; also called DRF-autoregulatory domain; Dia-autoregulatory domain
As to the kind of experiment: yeast two-hybrid, HIS reporter growth on 3-aminotriazole. The method, then: Yeast reporter strain HF7c was transformed with the indicated ‘bait’ (Trp⁻) and ‘prey’ (Leu⁻) plasmids before restreaking on selective plates (His) with increasing concentrations 3-aminotriazole (0, 2, 4, 8, 16, 32, and 64 mM) that selects for correlating expression of the HIS-reporter gene. The indicated numbers correspond to the highest concentration of 3-AT on which there was growth after 3 days. […] The mDia2 plasmid encodes amino acids 47-800.
(§2) Two-hybrid assays and in vitro translation/GST-pull downs were conducted as previously described (Kikyo et al., supra; Hill, C. S. et al., supra). In short, the indicated ‘bait’ proteins were generated by subcloning the indicated cDNAs into pGBT9 Gal4 DNA binding domain plasmid; ‘prey’ were Gal4 activation domain fusion proteins generated in either pGAD 10 or pSE1107. HF7c (Clontech) reporter yeast strain were co-transformed with the indicated plasmids and selected on appropriate plates for bait and prey auxotrophic markers, then restreaked onto His-plate to select for Gal4 regulated HIS reporter expression. Levels of reporter activity were monitored by replicate streaking onto Trp/Leu/His-plates with increasing concentrations (0-64 mM) of 3-aminotriazole.

The target of assay [3] is T1, Arp2/3 complex from NIH 3T3 cell lysates. As to the kind of experiment: GST pull-down from NIH 3T3 cell lysates, immunoblot with anti-p34 Arc. The method, then:
15 μg of the indicated fusion protein was indubated with lysates as in FIGS. 7a-7c. Bound material was detected after extensive washing and immunoblotting with anti-p34 Arc.
as §1

For assay [4], the target named is mDia2 (amino acids 47-800), yeast two-hybrid Gal4 fusion (mouse, UniProt Q9Z207 47-800). As to the kind of experiment: yeast two-hybrid. The method, then:
as §2
The mutants were tested for binding by two-hybrid analysis and were then expressed in cells.

Chain of mDia2 (amino acids 47-800), yeast two-hybrid Gal4 fusion (Q9Z207 47-800 limits assumed): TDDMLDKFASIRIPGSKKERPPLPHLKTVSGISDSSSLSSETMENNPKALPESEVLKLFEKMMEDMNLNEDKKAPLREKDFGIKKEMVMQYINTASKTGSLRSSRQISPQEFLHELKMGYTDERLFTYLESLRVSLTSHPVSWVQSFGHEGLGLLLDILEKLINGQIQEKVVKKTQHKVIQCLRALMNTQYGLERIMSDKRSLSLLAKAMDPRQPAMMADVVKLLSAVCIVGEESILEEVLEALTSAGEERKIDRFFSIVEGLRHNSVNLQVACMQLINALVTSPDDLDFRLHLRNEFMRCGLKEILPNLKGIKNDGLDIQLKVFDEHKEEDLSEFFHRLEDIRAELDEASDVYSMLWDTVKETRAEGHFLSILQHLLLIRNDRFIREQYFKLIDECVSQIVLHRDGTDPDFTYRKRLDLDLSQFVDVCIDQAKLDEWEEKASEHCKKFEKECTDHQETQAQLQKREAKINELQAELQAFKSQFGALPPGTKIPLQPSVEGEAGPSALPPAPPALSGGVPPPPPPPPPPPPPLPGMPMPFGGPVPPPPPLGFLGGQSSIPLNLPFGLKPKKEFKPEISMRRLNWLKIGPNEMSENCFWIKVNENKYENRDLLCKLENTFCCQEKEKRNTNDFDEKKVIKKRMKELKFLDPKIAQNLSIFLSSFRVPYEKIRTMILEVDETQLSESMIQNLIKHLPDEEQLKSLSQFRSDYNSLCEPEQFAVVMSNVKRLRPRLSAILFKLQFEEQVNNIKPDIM

B1: GST fusion of mDia2 FH2 (amino acids 801-910) (other)
chain: AVSTACEEIKKSKGFSKLLELVLLMGNYMNAGSRNAQTFGFDLSSLCKLKDTKSADQKTTLLHFLVDVCEEKHADILHFVDDLAHLDKASRVSVEMLEKNVKQMGRQLQQ
notes: not shown: glutathione-S-transferase tag of pGEX-KG
Take B1: the binding result in assay [1] is given as “no binding”.

B2: mDia2 FH2 (amino acids 801-910), yeast two-hybrid Gal4 fusion (other, not shown: small tags and cut ends)
chain: B1 chain
In the case of B2, in assay [2], the binding result is given as “no binding”.

B3: GST-DAD K1059E/R1060E (other)
chain: MKTEGDETGVMDSLLEALQSGAAFRDRREETPKLKDIRQSLSPMSQRPVLKVCNHENQKMQLTEGSRPHHSINCNSTRTPVAKELNYNLDTHASTGRIKAVEKEACNAESNKKKEMELLGSVAKSESVPEVEALLARLRAL
notes: not shown: Glutathione-S-transferase carrier (pGEX-KG) and its linker at the N end
For the molecule B3, the binding result in assay [3] is “no binding (tested: 15 ug fusion protein)”.

B4: mDia2 DAD M1041A, yeast two-hybrid Gal4 fusion (other, not shown: small tags and cut ends)
chain: B3 chain with M11A, E29K, E30R
For the molecule B4, in assay [4], the binding result was “no binding”.

B5: mDia2 DAD L1048A, yeast two-hybrid Gal4 fusion (other, not shown: small tags and cut ends)
chain: B3 chain with L18A, E29K, E30R
In the case of B5, the binding result in assay [4] is recorded as “no binding”.

B6: GST-DAD R1057E/R1058E (other)
chain: B3 chain with R27E, R28E, E29K, E30R
notes: as for B3
Turning to B6, the binding result in assay [3] is reported as “no binding (tested: 15 ug fusion protein)”.

B7: mDia2 DAD L1044A, yeast two-hybrid Gal4 fusion (other, not shown: small tags and cut ends)
chain: B3 chain with L14A, E29K, E30R
Take B7: the binding result in assay [4] was “no binding”.

B8: GST fusion of mDia2 GBD (amino acids 101-216) (other)
chain: VLKLFEKMMEDMNLNEDKKAPLREKDFGIKKEMVMQYINTASKTGSLRSSRQISPQEFLHELKMGYTDERLFTYLESLRVSLTSHPVSWVQSFGHEGLGLLLDILEKLINGQIQEK
notes: as for B1
As to B8, the binding result in assay [1] is “no binding”.

B9: mDia2 FH1 (amino acids 521-630), yeast two-hybrid Gal4 fusion (other, not shown: small tags and cut ends)
chain: AELQAFKSQFGALPPGTKIPLQPSVEGEAGPSALPPAPPALSGGVPPPPPPPPPPPPPLPGMPMPFGGPVPPPPPLGFLGGQSSIPLNLPFGLKPKKEFKPEISMRRLNW
With B9, the binding result in assay [2] is reported as “no binding”.

B10: GST fusion of mDia2 FH1 (amino acids 521-630) (other)
chain: B9 chain
notes: as for B1
With B10, the binding result in assay [1] is on record as “no binding”.
